Experimental data reported in PMC1891314.

Tests used:
[1] = target: OD_(CN54)+-Fc (outer domain of HIV-1 CN54 gp120, residues 251-481, with V295N+A394T, fused at its C terminus to the Fc domain of human IgG1) (HIV-1 CN54 | human); experiment: SDS-PAGE under non-reducing conditions; purified Fc fusion proteins under non-reducing conditions; data not shown
[2] = target: gp120_(CN54)+-Fc (HIV-1 CN54 gp120 with V295N+A394T, fused at its C terminus to the Fc domain of human IgG1) (HIV-1 CN54 | human); experiment: as above

Substance | stoichiometry N [1] | stoichiometry N [2]
OD_(CN54)+-Fc (outer domain of HIV-1 CN54 gp120, residues 251-481, with V295N+A394T, fused at its C terminus to the Fc domain of human IgG1) (Fc fusion) | 2 | 
gp120_(CN54)+-Fc (HIV-1 CN54 gp120 with V295N+A394T, fused at its C terminus to the Fc domain of human IgG1) (Fc fusion) |  | 2
